Molecular target: CD48 (UniProt P09326)
Assay: cell-based or functional assay

Sequence of UniProt P09326 (P09326 27-220 limits assumed): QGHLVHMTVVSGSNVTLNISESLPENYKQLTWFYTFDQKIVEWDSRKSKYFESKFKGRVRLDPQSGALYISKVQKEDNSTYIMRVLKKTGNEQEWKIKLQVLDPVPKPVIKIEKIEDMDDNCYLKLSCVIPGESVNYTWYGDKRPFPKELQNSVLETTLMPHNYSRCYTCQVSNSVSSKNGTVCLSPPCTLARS

NK cells expressing MIP-1α after incubation with S2 cells expressing B7H7 and CD48: 70%
NK cells with at least 3 different responses after incubation with S2 cells expressing B7H7 and CD48: 10%
Substance: 2B4 (CD244) (from UniProt Q9BZW8 22-370) (receptor)

Reference: US20230190800A1
